The record followed here is patent publication US20070243589A1 (Pfizer, published 2007).

Numbering of substitutions follows the chain as printed.

What is called IC50 is the concentration at which inhibition is half-maximal.

B1: 354A08 germlined IgG (antibody, V domains shown)
VH: QVQLVQSGAEVKKPGASVKVSCKASGYTFTDYYMHWVRQAPGQGLEWVGWINPYTGGAFYAQKFRGRVTMTRDTSISTAYMELSRLRSDDTAVYYCAREPERFGDSTGQVWGRGTLVTVSS
VL: QAVLTQPPSVSGAPGQRVTISCTGSSSNIGAGYGVHWYQQLPGTAPKLLIYGNSNRPSGVPDRFSGSKSGTSASLAITGLQAEDEADYYCYHWDKEQSGYVFGGGTQLTVLG
B2: 356A11 germlined IgG (antibody, V domains shown)
VH: B1 VH with D31N, G57S, R102K, G104D, D105S, S106D, T107D, G108S, Q109D
VL: B1 VL with N53D, Y91Q, H92S, W93Y, K95N, E96S, Q97L
B3: 087B03 germlined IgG (antibody, V domains shown)
VH: EVQLVESGGGVVRPGGSLRLSCAASGFTFDDYGMNWVRQAPGKGLEWVSGVNWNGGTRDYAASVKGRFTISRDNAKNSLYLQMNSLRAEDTALYHCARGWYSGAAWNMGYWGRGTLVTVSS
VL: QAALTQPASVSGSPGQSITISCTGASGDVGAYNFVSWYQQHPGKAPKLIIYDVNKRPSGVSNRFSGSKSGNTASLTISGLQAEDEADYYCSSYTSTFSVVFGGGTKLTVLG
B4: 166B06 germlined IgG (antibody, V domains shown)
VH: QVQLVQSGAEVKKPGASVKVSCKASGYTFSDYYIHWVRQAPGQGLEWMGWVNPDTGGTRYAQKFQGRVTMTRDMSISTAYMELSRLRSDDTAVYYCARDLTGFDPFDIWGQGTLVTVSS
VL: SSVLTQPPSVSVAPGKTARITCGGNNFRNKRVHWYQQKPGQAPVLVIYYDSDRPSGIPERFSGSRSGNTATLTISRVEAGDEADYYCQVWDLFNDNGVFGGGTKLTVLG
B5: 166G05 germlined IgG (antibody, V domains shown)
VH: B4 VH
VL: B4 VL with L92F, F93L, N94T, N96S, V98S
B6: GIL60 IgG (non-germlined parent) (antibody, V domains shown)
VH: B3 VH with H95Y, A104S, A105F, W106Y, N107Y, M108F
VL: B3 VL with A3V, A8S, A45T, A86S, L107V
notes: Human IgG4 heavy chain constant domain
B7: GIL01 IgG (non-germlined parent) (antibody, V domains shown)
VH: EVQLVESGGGLVTPGGSLRLSCAASGFTFSDYYMSWIRQAPGRGLEWVSAISGSGGSTYYADSVKGRITISRDNAKNSLYLQMSSLRSEDTAVYYCARGLWVWDPLDYWGRGTLVTVSS
VL: DIQMTQSPSTLSASIGDRVTITCRASEGIYHWLAWYQQKPGKAPKLLIYKASSLASGAPSRFSGSGSGTDFTLTISSLQPDDFATYYCQQYSNYPLTFGGGTKLEIKR
notes: as for B6
B8: GIL16 IgG (non-germlined parent) (antibody, V domains shown)
VH: QVQLVESGAEVKKPGASVKVSCKASGYTFTSYGISWVRQAPGQGLEWMGWISAYTGNTNYAQKFQGRVTMTTDTSTSTAYMELRSLRSDDTAVYYCARDRGYYDAFDIWGQGTLVTVSS
VL: B7 VL
notes: as for B6
B9: GIL45 IgG (non-germlined parent) (antibody, V domains shown)
VH: QMQLVQSGGGVVQPGRSLRLSCAASGFTFSNYGMYWVRQAPGKGLEWVAHIWYDGSNEKYADSVKGRMTVSRDNSRNTLYLQMNSLRAEDTAVYYCATEQHWITAFDIWGKGTLVTVSS
VL: QSVLTQPASVSGSPGQSITISCTGTSSDVGGYNYVSWYQQHPGKAPKLMIYEGSKRPSGVSNRFSGSKSGNTASLTISGLQAEDEADYYCSSYTTRSTRVFGGGTKLTVLG
notes: as for B6
B10: GIL68 IgG (non-germlined parent) (antibody, V domains shown)
VH: B4 VH with Q1E, K23Q, A40T, L45F, R67W, I76N, S77T, S84P, S88D
VL: B4 VL with S1Q, R19T, K38R, Y85F, L92S, F93S, N94T, N96R, G97P, V98L
notes: Human IgG4 heavy chain constant domain; Cryptate labeled in the HTRF assay; also called cryptate labeled GIL68 IgG
B11: GIL45 scFv (non-germlined parent) (scFv)
scFv: QMQLVQSGGGVVQPGRSLRLSCAASGFTFSNYGMYWVRQAPGKGLEWVAHIWYDGSNEKYADSVKGRMTVSRDNSRNTLYLQMNSLRAEDTAVYYCATEQHWITAFDIWGKGTLVTVSSGGGGSGAGGSGGGGSQSVLTQPASVSGSPGQSITISCTGTSSDVGGYNYVSWYQQHPGKAPKLMIYEGSKRPSGVSNRFSGSKSGNTASLTISGLQAEDEADYYCSSYTTRSTRVFGGGTKLTVLGAAAH

For the first experiment, the target named is T1, human IL-22 (human, UniProt Q9GZX6 34-179).
T1 sequence: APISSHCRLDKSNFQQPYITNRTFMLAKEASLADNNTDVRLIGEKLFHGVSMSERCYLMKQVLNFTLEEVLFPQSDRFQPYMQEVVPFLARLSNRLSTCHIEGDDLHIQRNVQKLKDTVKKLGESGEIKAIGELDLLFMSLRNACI
Nature of the experiment: cell-based or functional assay.
On to B1, for which the “IC50 of IgG in BaF3-IL-22 proliferation assay” value was 0.079 nM.

Consider B2, for which the “IC50 of IgG in BaF3-IL-22 proliferation assay” value was 0.053 nM.

Another experiment deals with T1, human IL-22. Nature of the experiment: cell-based or functional assay. The source holds these as a separate data set.
B3: the “IC50 (pM) of germlined IgG in BaF3-IL-22R proliferation assay” value (“IC50 (pM) of germlined IgG” for short) was 118 pM.

Take B4: the “IC50 (pM) of germlined IgG” value came to 169 pM.

With B5, the “IC50 (pM) of germlined IgG” value is 109 pM.

With B1, the “IC50 (pM) of germlined IgG” value worked out at 79 pM.

For B2, the “IC50 (pM) of germlined IgG” value was 53 pM.

For a further experiment, the target named is T2, BSA (bovine, UniProt P02769).
T2 construct: background wells labelled BSA; also called bovine serum albumin
T2 sequence (P02769 25-607 limits assumed): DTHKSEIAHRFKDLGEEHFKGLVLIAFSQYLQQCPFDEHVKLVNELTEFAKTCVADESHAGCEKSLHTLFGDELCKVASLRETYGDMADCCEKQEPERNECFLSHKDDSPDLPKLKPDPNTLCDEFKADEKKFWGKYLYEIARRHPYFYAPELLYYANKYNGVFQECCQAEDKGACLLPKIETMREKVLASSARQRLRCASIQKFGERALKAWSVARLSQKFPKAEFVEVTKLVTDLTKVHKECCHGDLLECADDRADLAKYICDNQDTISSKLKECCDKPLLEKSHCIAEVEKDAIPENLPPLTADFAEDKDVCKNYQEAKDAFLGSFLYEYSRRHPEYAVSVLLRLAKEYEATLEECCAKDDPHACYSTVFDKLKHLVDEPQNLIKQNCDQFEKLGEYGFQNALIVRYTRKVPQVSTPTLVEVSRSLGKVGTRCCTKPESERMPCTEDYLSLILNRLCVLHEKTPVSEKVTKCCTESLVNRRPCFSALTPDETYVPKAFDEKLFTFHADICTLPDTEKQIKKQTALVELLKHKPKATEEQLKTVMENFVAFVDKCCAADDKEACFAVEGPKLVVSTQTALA
Nature of the experiment: ELISA: wells labelled BSA, IgG at 1 µg/ml, HRP anti-human IgG, A450. Here is the method: (§1) Cross species reactivity of germlined and non-germlined optimized antibodies were determined as follows: ELISA plates (Costar, Cat. #3590) were coated overnight with 1 μg/ml of rat, mouse, or human IL-22 or human IL-26 in PBS buffer. Plates were washed with PBST buffer (0.05% Tween20 in PBS) 3 times, then blocked with 1% BSA (Sigma A8918)/PBST for 1 hr at RT. Antibodies were added at 1 μg/ml, incubated 1 hr at 25° C. […] The plates were incubated for 1 hour at 25° C., then washed with PBST, and developed with TMB (KPL, Cat. #50-76-04). Reaction was stopped with 0.18 M H₂S0₄. Plates were read at OD 450 nm.
Background: In an ELISA, binding on a coated surface is turned into a signal by an enzyme label.
In the case of B3, the binding result is given as “no binding (tested: 1 µg/ml (single concentration))”.

Consider B4, for which the binding result was “no binding (tested: 1 µg/ml (single concentration))”.

Turning to B5, the binding result was “no binding (tested: 1 µg/ml (single concentration))”.

Regarding B1, the binding result was “no binding (tested: 1 µg/ml (single concentration))”.

Turning to B2, the binding result is on record as “no binding (tested: 1 µg/ml (single concentration))”.

Another experiment deals with T3, IL-26 (human, UniProt Q9NPH9).
T3 construct: coated on the ELISA plate at 1 µg/ml; also called human IL-26
T3 sequence (cytokine, looked up): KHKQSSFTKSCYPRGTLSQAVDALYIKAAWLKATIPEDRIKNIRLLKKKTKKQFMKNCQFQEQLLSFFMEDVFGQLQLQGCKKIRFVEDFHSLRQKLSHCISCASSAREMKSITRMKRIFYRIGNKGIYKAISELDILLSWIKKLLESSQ
Nature of the experiment: ELISA: plate coated with 1 µg/ml human IL-26, IgG at 1 µg/ml, HRP anti-human IgG, A450. As for the experimental part:
as §1
Regarding B3, the binding result was “no binding (tested: 1 µg/ml (single concentration))”.

For the molecule B4, the binding result was “no binding (tested: 1 µg/ml (single concentration))”.

As to B5, the binding result is on record as “no binding (tested: 1 µg/ml (single concentration))”.

B1: the binding result was “no binding (tested: 1 µg/ml (single concentration))”.

With B2, the binding result is “no binding (tested: 1 µg/ml (single concentration))”.

The target in another experiment is T4, biotinylated IL-22 with an N-terminal His/FLAG tag (bio.IL-22H/F) (human, UniProt Q9GZX6 34-179, biotinylated (site not stated)).
T4 construct: not shown: N-terminal His/FLAG tag
T4 sequence: T1 sequence
Nature of the experiment: IL-22 receptor complex inhibition assay (bio.IL-22H/F binding to IL-22 receptor complex, DELFIA), IgG. Here is the method: Potency of purified IgG was verified in the biochemical IL-22 receptor complex inhibition assay as described below. IgG concentrations were titrated in order to obtain potency values.
(§2) Microtiter plates were coated with an IL-22 receptor complex antibody (1 μg/ml in PBS), and incubated for 1.5 hours at room temperature. Plates were washed three times in PBST, and blocked for 1 hour at room temperature with 2% MPBS. After a further 3 washes, diluted cell conditioned medium containing an IL-22 receptor complex was added and incubated overnight at 4° C. Crude scFv supernatants were prepared as described above. The following day, 25 μl of diluted scFv sample and 25 μl of bio.IL-22H/F (6 ng/ml) were added to the washed plates, and incubated for 1.5 hours at room temperature. Plates were washed 3 times in PBST, then binding of bio.IL-22H/F to the IL-22 receptor complex was detected with Europium-Streptavidin and the DELFIA® reagent kit (PerkinElmer). Time Resolved Fluorescence was measured using a Victor 2™ Plate Reader (Perkin Elmer).
In turn, B6 registered a concentration for half-maximal inhibition (IC50) of 15 nM.

Turning to B7, the 50% inhibitory concentration (IC50) worked out at 13 nM.

Turning to B8, the 50% inhibitory concentration (IC50) turned out to be 10 nM.

In turn, B9 registered an IC50 of 180 nM.

Take B10: the IC50 was determined as 2 nM.

In a further experiment the target is T4, biotinylated IL-22 with an N-terminal …. Nature of the experiment: IL-22 receptor complex inhibition assay (bio.IL-22H/F binding to IL-22 receptor complex, DELFIA), scFv. Here is the method: Both the IL-22/IL-22R binding assay (described above) and the IL-22/IL-22 receptor complex assay (described below) were used. ScFv concentrations were titrated in order to establish the clone potencies as measured by assay IC₅₀ values. These were determined using GraphPad Prism software and four-parameter logistic equation curve fitting.
as §2
Turning to B11, the concentration for half-maximal inhibition (IC50) came to 358 nM. This lies in the sub-micromolar range.
